Results taken from patent US20210130452A1.

Experiments:
[1] = target: human serum albumin (human) (UniProt P02768); assay: SPR (Biacore), HSA
human IL-17A (human) [2] = target: human IL-17A (human) (UniProt Q16552); assay: AlphaScreen IL17A-RA + HSA
human IL-17F (human) [3] = target: T1, human IL-17F (human) (UniProt Q96PD4); assay: AlphaScreen IL17F-RA
T1 sequence: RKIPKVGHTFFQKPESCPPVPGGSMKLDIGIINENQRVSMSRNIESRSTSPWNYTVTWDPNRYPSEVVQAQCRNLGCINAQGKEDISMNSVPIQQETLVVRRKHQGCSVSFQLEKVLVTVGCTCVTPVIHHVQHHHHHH

human IL-17A (human) [4] = target: human IL-17A (human) (UniProt Q16552); assay: cell-based or functional assay
[5] = target: human IL-17A/F heterodimer (human) (UniProt Q16552); assay: cell-based or functional assay
Chain of human IL-17A/F heterodimer (human) (Q16552 24-155 limits assumed, one chain of several): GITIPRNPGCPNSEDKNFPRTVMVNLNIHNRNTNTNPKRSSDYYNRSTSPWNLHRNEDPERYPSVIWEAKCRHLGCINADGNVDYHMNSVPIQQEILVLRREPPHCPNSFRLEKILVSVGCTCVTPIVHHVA

human IL-17F (human) [6] = target: T1, human IL-17F (human); assay: cell-based or functional assay
human IL-17A (human) [7] = target: human IL-17A (human) (UniProt Q16552); assay: AlphaScreen IL17A-RC
human IL-17F (human) [8] = target: T1, human IL-17F (human); assay: AlphaScreen IL17F-RC + HSA
[9] = target: human IL-17A/F heterodimer (human) (UniProt Q16552); assay: AlphaScreen IL17A/F-RA
[10] = target: human IL-17A/F heterodimer (human) (UniProt Q16552); assay: AlphaScreen IL17A/F-RC
[11] = target: human IL-17A/F heterodimer (human) (UniProt Q16552); assay: AlphaScreen IL17A/F-RA + HSA
human IL-17F (human) [12] = target: T1, human IL-17F (human); assay: AlphaScreen IL17F-RC
human IL-17A (human) [13] = target: human IL-17A (human) (UniProt Q16552); assay: AlphaScreen IL17A-RA
[14] = target: Cynomolgus monkey IL-17A (Cynomolgus monkey); assay: cell-based or functional assay
Chain of Cynomolgus monkey IL-17A (Cynomolgus monkey) (chain, as listed by the source): as the sequence (Q16552 24-155 limits assumed, one chain of several) above, with T3A, P8S, N34S, I77V, N78K, P104R counted along it

[15] = target: T2, Cynomolgus monkey IL-17F (Cynomolgus monkey) (UniProt G7P4V0); assay: cell-based or functional assay
T2 sequence: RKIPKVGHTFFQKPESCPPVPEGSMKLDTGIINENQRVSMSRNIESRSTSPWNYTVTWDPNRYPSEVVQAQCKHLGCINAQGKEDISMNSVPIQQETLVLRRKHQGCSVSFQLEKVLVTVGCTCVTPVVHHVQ

[16] = target: marmoset IL-17A (marmoset); assay: ELISA, coated IL-17A
Chain of marmoset IL-17A (marmoset) (chain, as listed by the source limits assumed): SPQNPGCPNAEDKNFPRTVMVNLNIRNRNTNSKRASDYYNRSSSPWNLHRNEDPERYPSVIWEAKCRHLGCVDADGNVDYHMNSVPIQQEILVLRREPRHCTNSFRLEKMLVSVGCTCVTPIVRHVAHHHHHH

[17] = target: T3, marmoset IL-17F (marmoset) (UniProt A6N6I9); assay: ELISA, coated IL-17F
T3 sequence (looked up): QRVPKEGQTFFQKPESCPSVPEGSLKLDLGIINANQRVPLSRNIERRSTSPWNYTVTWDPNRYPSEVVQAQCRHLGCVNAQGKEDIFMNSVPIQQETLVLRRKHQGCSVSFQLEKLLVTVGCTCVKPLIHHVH

Chain of human IL-17A (human) (Q16552 other isoform, or with tags, fused parts or gaps): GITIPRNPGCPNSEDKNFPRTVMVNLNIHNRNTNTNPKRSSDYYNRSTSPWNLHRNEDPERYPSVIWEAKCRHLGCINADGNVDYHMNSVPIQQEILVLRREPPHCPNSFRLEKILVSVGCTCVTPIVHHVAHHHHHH

B1: IL17MS0166 (bispecific antibody, part only; not given: linkers and anti-albumin Nanobody, not shown: small tags and cut ends)
chain, part: EVQLVESGGGLVQAGGSLRLSCGAAGGTFSSYATGWFRQAPGKEREFVAVFRWSDSHTAYADSVKGRFTISRDGAKNTLYLQMSSLKPEDTAIYYCTTATRPGEWDYWGQGTQVTVSSEVQLVESGGGLVQAGGSQRLSCTASGTIVNIHVMGWYRQAPGKQRELVALIFSGGSADYADSVKGRFTISRDNAKNTVYLEMNSLKAEDTAVYYCAAEIGYYSGGTYYSSEAHWGQGTQVTVSS
[1]
  koff: 0.0059 s⁻¹
Human IL-17A (human) [2]
  IC50: 0.203 nM
Human IL-17F (human) [3]
  IC50: 1.09 nM
Human IL-17A (human) [4]
  Emax, hIL-17A induced IL-6, HT-1080, 100 µM HSA: 98%
  Emax, hIL-17A induced IL-6, HT-1080, without HSA: 105%
  IC50, hIL-17A induced IL-6, HT-1080, 100 µM HSA: 1.95 nM
  IC50, hIL-17A induced IL-6, HT-1080, without HSA: 0.83 nM
[5]
  Emax, hIL-17A/F induced IL-6, HT-1080, 100 µM HSA: 72%
  IC50, hIL-17A/F induced IL-6, HT-1080, 100 µM HSA: 1.47 nM
Human IL-17F (human) [6]
  Emax, hIL-17F induced IL-6, HT-1080, 100 µM HSA: 85%
  Emax, hIL-17F induced IL-6, HT-1080, without HSA: 102%
  IC50, hIL-17F induced IL-6, HT-1080, 100 µM HSA: 8.5 nM
  IC50, hIL-17F induced IL-6, HT-1080, without HSA: 7.35 nM
Human IL-17A (human) [7]
  IC50: 0.367 nM
Human IL-17F (human) [8]
  IC50: 0.056 nM
[9]
  IC50: 0.128 nM
[10]
  IC50: 0.051 nM
[11]
  IC50: 0.095 nM
Human IL-17F (human) [12]
  IC50: 0.046 nM
Human IL-17A (human) [13]
  IC50: 0.161 nM

B2: SH-Fc-(GS)2-13E02 (Fc fusion, not shown: a dimerising Fc or GST; small tags and cut ends)
chain: EVQLVESGGGLVQAGGSLRLSCAASGRTYDAMGWLRQAPGKEREFVAAISGSGDDTYYADSVKGRFTISKDNAGITMYLQMNSLKPEDTAVYYCATRRGLYYVWDSNDYENWGQGTQVTVSS
[14]
  Emax, Cyno IL17A, HT-1080 bioassay: 100%
  IC50, Cyno IL17A, HT-1080 bioassay: 0.29 nM
[15]
  Emax, Cyno IL17F, HT-1080 bioassay: 87%
  IC50, Cyno IL17F, HT-1080 bioassay: 8.3 nM

B3: SH-Fc-(GS)2-13B03 (Fc fusion, not shown: a dimerising Fc or GST; small tags and cut ends)
chain: EVQLVESGGGSVQAGDSLRLSCAASGRANSINWFGWFRQTPGKEREFVAGIRWSDAYTEYANSVKGRFTISRDNAKNTVDLQMDSLKPEDTAVYYCVLDLSTVRYWGQGTQVTVSS
[14]
  Emax, Cyno IL17A, HT-1080 bioassay: 98%
  IC50, Cyno IL17A, HT-1080 bioassay: 0.37 nM
[15]
  Emax, Cyno IL17F, HT-1080 bioassay: 103%
  IC50, Cyno IL17F, HT-1080 bioassay: 5 nM

B4: 07B11 (VHH)
VHH: EVQLVESGGGLVQAGGSLRLSCVASGRAFSSYVMGWFRQAPGMEREFVALIRWSDGITGYVDSVKGRFTISRDNAKNTVYLQMNSLKPEDTAVYYCAAAVRPGDYDYWGQGTQVTVSS
[16]
  OD: 0.186 OD

B5: 24G10 (VHH)
VHH: EVQLVESGGGLVQAGGSLRLSCGAAGGTFSSYATGWFRQAPGKEREFVAVFRWSDSHTAYADSVKGRFTISRDGAKNTLYLQMSSLKPEDTAIYYCTTATRPGEWDYWGQGTQVTVSS
[16]
  OD: 0.122 OD

B6: 17C01 (VHH)
VHH: EVQLVESGGRLVQAGGSLRLPCAASGRTFTSYPMGWFRQAPGKEREFVAAISMSGDDAAYADFVRGRFTISRDDARNTVYLHMTSLKPEDTAVYYCAARTSYDGTYDYIDDYSYWGQGTQVTVSS
[17]
  OD: 0.0525 OD

B7: IL17MS0110 (bispecific antibody, part only; not given: linkers and anti-albumin Nanobody, not shown: small tags and cut ends)
chain, part: EVQLVESGGGLVQAGGSQRLSCTASGTIVNIHVMGWYRQAPGKQRELVALIFSGGSADYADSVKGRFTISRDNAKNTVYLEMNSLKAEDTAVYYCAAEIGYYSGGTYYSSEAHWGQGTQVTVSSEVQLVESGGGLVQAGGSLRLSCAASGRTFSSYVVGWFRQAPGKEREFIGAISGSGDSIYYAVSEKDRFTISRDNGKNTLYLQMSSLKAEDTAVYYCTADQEFGYLRFGRSEYWGQGTQVTVSS
[1]
  koff: 0.0061 s⁻¹
Human IL-17F (human) [12]
  IC50: 0.048 nM
Human IL-17A (human) [13]
  IC50: 0.045 nM

B8: IL17MS0154 (bispecific antibody, part only; not given: linkers and anti-albumin Nanobody, not shown: small tags and cut ends)
chain, part: EVQLVESGGGLVQAGGSLRLSCAASGRTFSSYVVGWFRQAPGKEREFIGAISGSGDSIYYAVSEKDRFTISRDNGKNTLYLQMSSLKAEDTAVYYCTADQEFGYLRFGRSEYWGQGTQVTVSSEVQLVESGGGLVQAGGSQRLSCTASGTIVNIHVMGWYRQAPGKQRELVALIFSGGSADYADSVKGRFTISRDNAKNTVYLEMNSLKAEDTAVYYCAAEIGYYSGGTYYSSEAHWGQGTQVTVSS
[1]
  koff: 0.0057 s⁻¹
Human IL-17F (human) [12]
  IC50: 0.047 nM
Human IL-17A (human) [13]
  IC50: 0.056 nM
